Measurements reported in patent US20070292390A1.

How the values were obtained:
[1] = molecular target: tethered gp140 89.6 (HIV-1 isolate 89.6) (UniProt Q73372); experiment: competition ELISA; competitor (coated): Fab m44; biotinylated gp140 89.6; competing antibody at 12 µg/ml
[2] = molecular target: tethered gp140 89.6 (HIV-1 isolate 89.6) (UniProt Q73372); experiment: competition ELISA; competitor (coated): Fab m47; biotinylated gp140 89.6; competing antibody at 12 µg/ml
[3] = molecular target: tethered gp140 89.6 (HIV-1 isolate 89.6) (UniProt Q73372); experiment: competition ELISA; competitor (coated): Fab m43; biotinylated gp140 89.6; competing antibody at 12 µg/ml
[4] = molecular target: tethered gp140 89.6 (HIV-1 isolate 89.6) (UniProt Q73372); experiment: competition ELISA; competitor (coated): Fab m48; biotinylated gp140 89.6; competing antibody at 12 µg/ml
[5] = molecular target: tethered gp140 89.6 (HIV-1 isolate 89.6) (UniProt Q73372); experiment: competition ELISA; competitor (coated): Fab m45; biotinylated gp140 89.6; competing antibody at 12 µg/ml

## Fab Z13
[1]
  Inhibition, %: 57%
[2]
  Inhibition, %: 41%
[3]
  Inhibition, %: 72%
[4]
  Inhibition, %: 87%
[5]
  Inhibition, %: 0%

## IgG 2F5 (antibody)
[1]
  Inhibition, %: 38%
[2]
  Inhibition, %: 31%
[3]
  Inhibition, %: 51%
[4]
  Inhibition, %: 74%
[5]
  Inhibition, %: 0%

## IgG 4E10 (antibody)
[1]
  Inhibition, %: 42%
[2]
  Inhibition, %: 10%
[3]
  Inhibition, %: 29%
[4]
  Inhibition, %: 63%
[5]
  Inhibition, %: 6%
